± gives the standard deviation of the averaged measurements.
B1: library; a variant is named by its letters at N, in order (parent)
chain: GCUGUCACCGGUGUAUUACCCUAGUGGUCGACCGGUCUGAUGAGUCUNNNNNNAGACGAAACAGC

How the values were obtained:
hypoxanthine [1] = variants of: B1; assay: normalized RNA/DNA level with ligand (relative to sTRSVctl = 100) (log10 (% of sTRSVctl)); ligand: hypoxanthine (xanthine aptamer); higher = less ribozyme self-cleavage, higher mRNA level; settings: ligand concentration (+) RNA-Seq: 5 mM, HEK293T, reporter: mCherry (pCS4076), ligand present: yes
How it was run: (§1)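 HEK293T cells were transfected with library plasmids carrying ribozyme switches linked to an mCherry reporter, or an eGFP reporter in some ligand experiments, at 4 µg per well of a 6-well plate, with any ligand added 1 h beforehand. After 72 h, total RNA was extracted with EDTA, reverse-transcribed, amplified, barcoded and sequenced. RNA level was defined as RNA reads over DNA reads, normalized to a spiked-in non-cleaving sequence or to the top-ranked sequences. That value was multiplied by 100 and converted to log10, the top set was 25 sequences, and only sequences with ≥100 DNA reads were retained.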

hypoxanthine [2] = variants of: B1; assay: normalized RNA/DNA level without ligand (relative to sTRSVctl = 100) (log10 (% of sTRSVctl)); ligand: hypoxanthine (xanthine aptamer); higher = less ribozyme self-cleavage, higher mRNA level; settings: HEK293T, reporter: mCherry (pCS4076), ligand present: no
How it was run: as §1

| Variant | normalized RNA/DNA level with ligand (log10) (hypoxanthine [1]) | normalized RNA/DNA level without ligand (log10) (hypoxanthine [2]) |
| --- | --- | --- |
| CCUUAG | 1.98 ± 0.025 | 1.72 ± 0.037 |
| CCUUAU | 1.95 ± 0.014 | 1.93 ± 0.069 |
| CCUUAC | 1.94 ± 0.025 | 1.829 ± 0.0071 |
| CCUUAA | 1.96 ± 0.034 | 1.85 ± 0.038 |
| AGACGC | 1.923 ± 0.0088 | 1.69 ± 0.044 |
| ACUUCC | 1.928 ± 0.015 | 1.923 ± 0.0089 |
| ACUUCA | 1.95 ± 0.025 | 1.922 ± 0.013 |
| ACUUCU | 1.91 ± 0.12 | 1.889 ± 0.0063 |
| ACUUGC | 1.9727 ± 0.00052 | 1.822 ± 0.0021 |
| ACUUGA | 1.935 ± 0.017 | 1.72 ± 0.027 |
| ACUUGG | 1.88 ± 0.029 | 1.38 ± 0.068 |
| ACUUGU | 1.91 ± 0.086 | 1.77 ± 0.11 |
| UGACCG | 1.96 ± 0.094 | 1.79 ± 0.046 |
| UGACCC | 2.002 ± 0.0071 | 1.94 ± 0.024 |
| UGACCU | 2.004 ± 0.012 | 1.92 ± 0.021 |
| UGACCA | 1.93 ± 0.058 | 1.886 ± 0.0032 |
| GGAACC | 1.957 ± 0.0033 | 1.86 ± 0.021 |
| GGAACA | 1.942 ± 0.0069 | 1.764 ± 0.0065 |
| GGAACU | 1.93 ± 0.031 | 1.9403 ± 0.00023 |
| AGAACA | 1.91 ± 0.044 | 1.799 ± 0.0065 |

| Variant | normalized RNA/DNA level with ligand (log10) (hypoxanthine [1]) | normalized RNA/DNA level without ligand (log10) (hypoxanthine [2]) |
| --- | --- | --- |
| AGAACU | 1.96 ± 0.035 | 1.83 ± 0.022 |
| GCUGUA | 1.9622 ± 0.0015 | 1.901 ± 0.014 |
| GCUGUU | 1.99 ± 0.05 | 1.98 ± 0.058 |
| GCUGUC | 1.913 ± 0.0099 | 1.84 ± 0.013 |
| AGAAUU | 1.926 ± 0.017 | 1.86 ± 0.025 |
| AGAAUC | 1.94 ± 0.086 | 1.91 ± 0.048 |
| AGAAUA | 1.92 ± 0.012 | 1.77 ± 0.03 |
| AGAAGC | 1.918 ± 0.0099 | 1.7002 ± 0.0015 |
| AGAAGU | 1.85 ± 0.034 | 1.51 ± 0.029 |
| AGAGAC | 1.88 ± 0.028 | 1.772 ± 0.017 |
| CGAUAU | 1.911 ± 0.0083 | 1.74 ± 0.024 |
| CGAAAG | 1.94 ± 0.04 | 1.839 ± 0.0055 |
| CCUUGA | 1.97 ± 0.09 | 1.86 ± 0.026 |
| CCUUGU | 1.93 ± 0.15 | 1.88 ± 0.041 |
| CGAAGU | 1.93 ± 0.022 | 1.86 ± 0.046 |
| CGAAGC | 1.948 ± 0.0063 | 1.811 ± 0.012 |
| UGAUGC | 1.95 ± 0.059 | 1.852 ± 0.014 |
| UGAUGU | 1.91 ± 0.02 | 1.67 ± 0.022 |
| UGAUGG | 1.92 ± 0.062 | 1.51 ± 0.064 |
| CCUUCA | 1.97 ± 0.074 | 1.91 ± 0.04 |

| Variant | normalized RNA/DNA level with ligand (log10) (hypoxanthine [1]) | normalized RNA/DNA level without ligand (log10) (hypoxanthine [2]) |
| --- | --- | --- |
| CCUUCG | 1.88 ± 0.035 | 1.876 ± 0.0072 |
| CCUUCU | 1.98 ± 0.08 | 1.95 ± 0.048 |
| CCUUCC | 1.99 ± 0.033 | 1.963 ± 0.016 |
| GGCACA | 1.885 ± 0.002 | 1.86 ± 0.03 |
| UCUUCA | 1.97 ± 0.11 | 1.8691 ± 0.00053 |
| UCUUCU | 1.979 ± 0.0024 | 1.94 ± 0.099 |
| UCUUCG | 1.93 ± 0.086 | 1.7 ± 0.11 |
| UCUUCC | 2.022 ± 0.017 | 1.92 ± 0.024 |
| UGACAA | 1.918 ± 0.012 | 1.74 ± 0.078 |
| UGACAU | 1.937 ± 0.0061 | 1.81 ± 0.033 |
| GGACAU | 1.886 ± 0.0069 | 1.8 ± 0.038 |
| GGACAG | 1.85 ± 0.055 | 1.468 ± 0.0059 |
| GGAGGC | 1.82 ± 0.08 | 1.37 ± 0.057 |
| GGAGGG | 1.883 ± 0.018 | 1.493 ± 0.0022 |
| CCUGGA | 1.996 ± 0.0047 | 1.88 ± 0.02 |
| CCUGGG | 1.94 ± 0.027 | 1.508 ± 0.014 |
| CCUGGU | 1.945 ± 0.014 | 1.88 ± 0.0076 |
| CCUGGC | 2.01 ± 0.037 | 1.924 ± 0.00087 |
